Test results: the supplement of paper PMC12042874
± gives the uncertainty stated by the source.

Assay: amyloid nucleation score (Sup35N fusion, yeast selection) (log enrichment); library NNK3; higher = more nucleation; inactive = no reads after selection
Method in brief: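 The nucleation score is a DiMSum log enrichment of output over input reads, centred on the mode score of non-aggregating sequences. Sequences under 100 input reads were excluded, and reads came from Illumina sequencing of plasmid inserts. Psi-negative yeast expressing Sup35N fused to peptides of 20 random codons were induced with 100 μM copper sulfate for 24 hours and grown 7 days at 30°C on medium lacking adenine and uracil. Random libraries had three technical output replicates.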

| Substance | amyloid nucleation score |
| --- | --- |
| RNMNLLSMHIGLISLFSGEL | 1.81 ± 0.056 |
| TSYVLWLSRLYFVANPSDYS | inactive |
| SLCLYNSFLSSL | inactive |
| APFCVRGSWELRQVFRM | -0.13 ± 0.77 |
| AQILYYLYYT | inactive |
| ACLSFVYALYPLCLRLIS | inactive |
| TYKVFL | inactive |
| RGGCQATVGNALNIRFFAQG | 1.72 ± 0.095 |
| DIYFTSESSVYIVHWFLFRH | inactive |
| RHSLQMVRGTHSLCLWYNWV | inactive |
| QREGSNCAILCLL | inactive |
| RYCGYHGVRFCSVCRFNMSL | inactive |
| YCSCMLTGNMGRSH | -0.032 ± 0.33 |
| YRDFDEDCVIL | inactive |
| GALAKFLLISKTMRVDMRMV | inactive |
| NWVVFFTYMAHHE | 0.166 ± 0.26 |
| HIVKIRSG | inactive |
| HSLDRKYSWRI | inactive |
| NWYSLKGVISNFSAVFSHGY | inactive |
| TCRHPIPASLARSAAAVLVW | inactive |
| GVSSCFWSSFEQKFMKLSSV | inactive |
| ILCCTCYLRDIDMVVGACDG | 1.62 ± 0.063 |
| CYRYAIMNAFS | inactive |
| SRTYKHKALAQFPYKYWCVP | inactive |

| Substance | amyloid nucleation score |
| --- | --- |
| KDADMDLLSRYATRCGVSRL | inactive |
| CNVRFCIDFMIFMVISDSKD | 1.11 ± 0.14 |
| IFSYLEEECDPRWRGPLKPL | inactive |
| KQCIFNISLCSS | 0.008 ± 0.42 |
| RRKHHVISQVPERPLSWLAT | inactive |
| YISLISCMGKVNY | 2.31 ± 0.089 |
| NDARAVGCTLRYKGLAIYSY | inactive |
| WRFFVVRKNSTSA | inactive |
| VTGIIRRIYLLF | inactive |
| HKRLGPLHYRLICG | inactive |
| VISIPHGSAIRTCIVITMSL | inactive |
| VQGTTVDMDYYFTVSCLHAK | inactive |
| GSTCSDLLALYPWYVRIKEI | inactive |
| ISCRMYLCCQVLTSSCTWSH | 1.34 ± 0.11 |
| MSKWYYRWASYNCWFFDRPV | inactive |
| MWWAINCWSSKFHIYSIDTY | inactive |
| IFVRSLAQLGLIFDFHIFWE | inactive |
| ILCANGYRSVFSYFLFGCAY | inactive |
| LWIVLQVHSFDVRFAQGFHI | 0.613 ± 0.17 |
| TDTLCDWYLPNRRWIKDNEW | inactive |
| GLDTAR | inactive |
| VTYNTSSGRVYGTGHNWFQG | inactive |
| FYSCKSTAGCSTTIEGARNY | inactive |
| INLHFDITDWANNDLENKGH | inactive |

| Substance | amyloid nucleation score |
| --- | --- |
| YALVVR | inactive |
| DRNSYVMCYPWGVVWCNHKS | 1.03 ± 0.14 |
| GRIYFYLVKTDPVQERTQLF | inactive |
| DSASLGLNLP | inactive |
| GWTLQWIVWI | 0.081 ± 0.81 |
| RSMSSGAICSMSY | inactive |
| TTVDDNFVHRRPM | inactive |
| WKALFSSTSCYTGVG | inactive |
| FKDMFPNLSTCLLIVRM | inactive |
| MYVWLRCKLIGNSFLRVKCS | inactive |
| RYSVYGLNICFL | 2.45 ± 0.083 |
| VRLSRAVILLAVIHLRWGLT | inactive |
| DNSFSPLASGLYQLKGVELI | inactive |
| EMEASRG | inactive |
| ILGFLCPLFSFFFSGGYFLG | inactive |
| SHVLWDGTWEVGGGGHKA | inactive |
| MMSFNVPLNAWVLSEFDTTY | inactive |
| TVYFNYRVWHTMARKQKLSS | inactive |
| YRRAWRTIILKCTCLNQHV | 0.2 ± 0.42 |
| YIIFVNKLSSPYFVT | 1.06 ± 0.19 |
| TRGRNTKDGVDGDLPADVLV | inactive |
| TVRYVYTCFINFQTLVHRRM | -0.784 ± 0.8 |
| TKSYPRTMFEPALALDMP | 0.871 ± 0.26 |
| FFFLLKMRHKPSASANLNSN | inactive |

| Substance | amyloid nucleation score |
| --- | --- |
| VLNSIGPYVMTKR | 0.139 ± 0.63 |
| DRTMLFVTCFNFRRSS | 1.64 ± 0.078 |
| RLLGTRSYTIWACYTCAVFM | 2.15 ± 0.088 |
| NGVILYETSAWVTNVYSRFK | 1.2 ± 0.18 |
| IEGVGCIFRDLGDFLRGPWG | inactive |
| MRNGCCNACKILLDIRLFL | 1.96 ± 0.059 |
| FTPDVRWLNVLNSHNGVIEV | inactive |
| WRNENLPQSGRSMLVIFLLV | inactive |
| SVLHMWNLRVVLHECYVYHI | inactive |
| VNFILSTAHLL | inactive |
| RDIISMIVGWVLLQYLTTTY | -0.888 ± 1 |
| ADRMDGDSTGFYSTNLRGYS | inactive |
| LFDFADSMVRQVRTDAKRLN | inactive |
| MLKPIMLILKSLEFVLEESS | 0.985 ± 0.11 |
| NVRVYSFQMTVECKELLDSQ | inactive |
| YWDDWLNSTGRDPSHKPRRT | 1.95 ± 0.07 |
| SRSNQNCLPSASMNVYLSVT | inactive |
| IKCDLRSSVAWDLSVILYSF | inactive |
| SNVSVHGMIESMLWLSTRDI | inactive |
| VVGSSIK | inactive |
| QDDAVFSLSI | inactive |
| MIVWTHNYLEGELFVSLPLV | inactive |
| SSGYAFTGKVFYC | inactive |
| CDSWAYCRGCFRFML | -0.092 ± 1.1 |

| Substance | amyloid nucleation score |
| --- | --- |
| FGTMSSGYAGGNKKFHPHRY | inactive |
| WGMTNSETGLVGWSLSKLLG | inactive |
| EILRMCH | inactive |
| STNPPNRL | inactive |
| LSGPMRYELCMRLGSGLNYE | inactive |
| IYRQDCGFSPKNRKMVSGAA | inactive |
| QTNIWYSGPIGSYHC | inactive |
| WLHKH | inactive |
| GCSWLFSSLCFLGDNALGST | inactive |
| LDLDSNRFKVDLNDLYELVV | inactive |
| MDVWASYMTVSESVCSSLVR | inactive |
| VITVIFVSYYCIPVWYW | 1.81 ± 0.099 |
| VCCSYY | 1.32 ± 0.11 |
| PNLMLPCTSGRELMKVSNVL | inactive |
| SILLIFCLSKTRFSVMSFLP | inactive |
| DVGMGRHGKAMK | inactive |
| WAYMVNFFRTNLICEGWFDG | -0.841 ± 2.5 |
| YSSFAANSCFLERVEVKSDL | inactive |
| KLRFKLRSLVNNNCGVVTRA | inactive |
| NFWVIPQ | inactive |
| LYMNFSMDGIASVSLGVLRL | 0.633 ± 0.19 |
